Results from the supplement of paper PMC10065799, “High-throughput profiling of sequence recognition by tyrosine kinases and SH2 domains using bacterial peptide display” (eLife, 2023).

Biological target: Jak2 (UniProt O60674)
Test: phosphorylation enrichment, bacterial display (enrichment ratio); higher = better substrate or ligand; peptides without Tyr show the background
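Note: 11-residue human phosphosite peptides and single-mutation variants displayed on the E. coli surface, counted by deep sequencing, each peptide's frequency after selection divided by its frequency in the unselected input library; frequency after pTyr selection over input frequency; kinase dosed for 20-30% of maximal phosphorylation in three min.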

Jak2, sequence (O60674 whole entry, looked up): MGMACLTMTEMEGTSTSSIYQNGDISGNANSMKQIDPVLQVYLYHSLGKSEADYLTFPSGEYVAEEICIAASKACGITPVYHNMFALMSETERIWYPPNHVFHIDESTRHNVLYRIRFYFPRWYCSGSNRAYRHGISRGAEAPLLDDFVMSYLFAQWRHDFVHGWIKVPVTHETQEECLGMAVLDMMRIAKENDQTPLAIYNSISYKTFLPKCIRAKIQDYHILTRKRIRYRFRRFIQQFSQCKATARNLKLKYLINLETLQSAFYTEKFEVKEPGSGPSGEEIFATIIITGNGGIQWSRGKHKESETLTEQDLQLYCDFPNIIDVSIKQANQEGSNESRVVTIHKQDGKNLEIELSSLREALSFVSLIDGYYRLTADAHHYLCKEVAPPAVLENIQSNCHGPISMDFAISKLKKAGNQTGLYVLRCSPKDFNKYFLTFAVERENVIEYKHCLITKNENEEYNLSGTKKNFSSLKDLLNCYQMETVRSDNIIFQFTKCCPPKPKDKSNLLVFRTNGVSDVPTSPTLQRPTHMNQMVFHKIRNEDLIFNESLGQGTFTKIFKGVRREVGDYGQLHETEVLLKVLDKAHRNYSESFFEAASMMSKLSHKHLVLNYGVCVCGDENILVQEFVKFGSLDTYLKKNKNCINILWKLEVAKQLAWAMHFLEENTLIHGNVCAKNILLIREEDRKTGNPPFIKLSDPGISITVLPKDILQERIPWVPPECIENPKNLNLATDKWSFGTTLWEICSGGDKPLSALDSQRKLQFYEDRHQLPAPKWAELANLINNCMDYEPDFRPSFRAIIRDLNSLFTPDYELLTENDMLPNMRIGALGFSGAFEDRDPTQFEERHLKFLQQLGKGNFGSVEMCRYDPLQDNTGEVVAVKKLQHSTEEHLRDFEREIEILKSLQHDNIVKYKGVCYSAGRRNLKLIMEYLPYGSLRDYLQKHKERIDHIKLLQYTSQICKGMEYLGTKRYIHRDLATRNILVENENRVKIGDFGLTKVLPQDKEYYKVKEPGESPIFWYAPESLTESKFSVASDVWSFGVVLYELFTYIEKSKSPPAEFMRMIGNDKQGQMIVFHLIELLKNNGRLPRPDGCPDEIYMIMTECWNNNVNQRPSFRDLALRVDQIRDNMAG

First: YQLPYYNMVPS [BMPR1A_Y458]
Second: VMTSKYRGGGG [HBA1_Y141_L137M]
The phosphorylation enrichment of the first is higher: 10.4 for the first, 0.424 for the second.

First: FFSSEYHFVGG [CTSC_Y345_YF]
Second: DLNATYCTIQG [U2SURP_Y634_R635C]
The phosphorylation enrichment of the first is higher: 1.95 for the first, 0.845 for the second.

Going from MVIPNYSSWTE [UROC1_Y185_R188W] to KLLLKYSFHDV [RNF213_Y4141], the phosphorylation enrichment rises from 1.16 to 1.57.

First: HAVEDYQAIVD [CCT7_Y263_T259A]
Second: PRQRRYVFFFS [PTEN_Y174_S170R_YF]
The phosphorylation enrichment of the first is higher: 1.25 for the first, 0.262 for the second.

Going from LFLASYCIGGG [UBD_Y161_C160S] to EGGFAYVPLKD [PRIM2_Y208_D204G], the phosphorylation enrichment falls from 1.21 to 1.12.

Going from PDMHSYMVRYN [GRIN2D_Y732] to DRTVHYVDEKG [IFT140_Y216_G212R], the phosphorylation enrichment falls from 1.07 to 0.597.

Compared with GSIQQYIYKQE [PRG4_Y1271], SSSAIYDNPNL [DCP1B_Y191] is lower in phosphorylation enrichment: 0.811 for the first, 0.632 for the second.

Compared with EERKTYVNTTL [TEK_Y1102], KRLDGYVLEGW [IGSF9_Y656_R661W] is lower in phosphorylation enrichment: 0.983 for the first, 0.651 for the second.

First: TEYIQYVRRKN [MAX_Y73_M74V]
Second: SHGQDYLAGNK [GSTA2_Y147_V149A]
The phosphorylation enrichment of the first is lower: 0.548 for the first, 0.64 for the second.

First: PSSRDYKDNIK [PIGN_Y227_H229D]
Second: TIWDSYTTNKV [GNB1_Y85_I80T]
The phosphorylation enrichment of the first is lower: 0.9 for the first, 1.19 for the second.

First: SMAKYYASGIA [ACADSB_Y373_E376G]
Second: GRSTFYWPRPR [GAGE12J_Y10_YF]
The phosphorylation enrichment of the first is higher: 0.665 for the first, 0.644 for the second.

Going from AFDNLYYWDQD [ERBB2_Y1221] to VEKEKYVSFIS [JMJD1C_Y596_M591V_YF], the phosphorylation enrichment falls from 1.55 to 0.755.

Going from PLRANYLIARV [HLCS_Y635_D634N] to CKLVDYDSARH [BIN1_Y150_R145C], the phosphorylation enrichment falls from 1.27 to 0.66.

Compared with FAKSVYWDNTL [NUP107_Y296_E298D_YF], IDAICYYRMEN [NPHS2_Y194] is higher in phosphorylation enrichment: 1.02 for the first, 3.15 for the second.

In the case of CEHRGCLYLAI [TEK_Y897_Y897C], the phosphorylation enrichment is reported as 1.05.

Biological target: Fyn (UniProt P06241)
Test: as above

Fyn, sequence (P06241 whole entry, looked up): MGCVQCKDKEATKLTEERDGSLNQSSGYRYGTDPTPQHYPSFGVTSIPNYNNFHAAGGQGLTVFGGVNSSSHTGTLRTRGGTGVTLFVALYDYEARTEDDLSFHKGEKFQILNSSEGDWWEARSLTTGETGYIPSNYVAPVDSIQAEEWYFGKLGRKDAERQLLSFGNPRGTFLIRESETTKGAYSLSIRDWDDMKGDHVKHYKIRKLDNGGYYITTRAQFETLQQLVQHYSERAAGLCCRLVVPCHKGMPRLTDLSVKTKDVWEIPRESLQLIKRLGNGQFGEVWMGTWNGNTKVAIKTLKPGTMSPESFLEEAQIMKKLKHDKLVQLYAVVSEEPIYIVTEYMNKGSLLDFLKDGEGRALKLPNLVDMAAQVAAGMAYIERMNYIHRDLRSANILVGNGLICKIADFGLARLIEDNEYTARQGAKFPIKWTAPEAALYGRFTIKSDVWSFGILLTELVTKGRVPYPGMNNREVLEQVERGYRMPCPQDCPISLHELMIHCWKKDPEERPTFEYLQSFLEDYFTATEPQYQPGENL

First: YQLPYYNMVPS [BMPR1A_Y458]
Second: VMTSKYRGGGG [HBA1_Y141_L137M]
The phosphorylation enrichment of the first is higher: 3.36 for the first, 0.378 for the second.

First: FFSSEYHFVGG [CTSC_Y345_YF]
Second: DLNATYCTIQG [U2SURP_Y634_R635C]
The phosphorylation enrichment of the first is lower: 2 for the first, 9.64 for the second.

Going from MVIPNYSSWTE [UROC1_Y185_R188W] to KLLLKYSFHDV [RNF213_Y4141], the phosphorylation enrichment falls from 0.689 to 0.418.

Compared with HAVEDYQAIVD [CCT7_Y263_T259A], PRQRRYVFFFS [PTEN_Y174_S170R_YF] is lower in phosphorylation enrichment: 0.792 for the first, 0.575 for the second.

Going from LFLASYCIGGG [UBD_Y161_C160S] to EGGFAYVPLKD [PRIM2_Y208_D204G], the phosphorylation enrichment falls from 0.416 to 0.369.

First: PDMHSYMVRYN [GRIN2D_Y732]
Second: DRTVHYVDEKG [IFT140_Y216_G212R]
The phosphorylation enrichment of the first is higher: 0.64 for the first, 0.429 for the second.

Compared with GSIQQYIYKQE [PRG4_Y1271], SSSAIYDNPNL [DCP1B_Y191] is higher in phosphorylation enrichment: 0.522 for the first, 8.1 for the second.

First: EERKTYVNTTL [TEK_Y1102]
Second: KRLDGYVLEGW [IGSF9_Y656_R661W]
The phosphorylation enrichment of the first is lower: 0.45 for the first, 0.484 for the second.

Going from TEYIQYVRRKN [MAX_Y73_M74V] to SHGQDYLAGNK [GSTA2_Y147_V149A], the phosphorylation enrichment falls from 0.615 to 0.458.

First: PSSRDYKDNIK [PIGN_Y227_H229D]
Second: TIWDSYTTNKV [GNB1_Y85_I80T]
The phosphorylation enrichment of the first is higher: 0.496 for the first, 0.444 for the second.

Compared with SMAKYYASGIA [ACADSB_Y373_E376G], GRSTFYWPRPR [GAGE12J_Y10_YF] is higher in phosphorylation enrichment: 0.331 for the first, 0.474 for the second.

Compared with AFDNLYYWDQD [ERBB2_Y1221], VEKEKYVSFIS [JMJD1C_Y596_M591V_YF] is lower in phosphorylation enrichment: 6.31 for the first, 0.477 for the second.

Compared with PLRANYLIARV [HLCS_Y635_D634N], CKLVDYDSARH [BIN1_Y150_R145C] is lower in phosphorylation enrichment: 0.769 for the first, 0.463 for the second.

Going from FAKSVYWDNTL [NUP107_Y296_E298D_YF] to IDAICYYRMEN [NPHS2_Y194], the phosphorylation enrichment falls from 0.679 to 0.66.

For CEHRGCLYLAI [TEK_Y897_Y897C], the phosphorylation enrichment was 0.372.

System: Fer (mouse)
Test: as above

Compared with YQLPYYNMVPS [BMPR1A_Y458], VMTSKYRGGGG [HBA1_Y141_L137M] is lower in phosphorylation enrichment: 5.67 for the first, 0.378 for the second.

Going from FFSSEYHFVGG [CTSC_Y345_YF] to DLNATYCTIQG [U2SURP_Y634_R635C], the phosphorylation enrichment rises from 0.526 to 1.

Going from MVIPNYSSWTE [UROC1_Y185_R188W] to KLLLKYSFHDV [RNF213_Y4141], the phosphorylation enrichment falls from 1.78 to 0.537.

First: HAVEDYQAIVD [CCT7_Y263_T259A]
Second: PRQRRYVFFFS [PTEN_Y174_S170R_YF]
The phosphorylation enrichment of the first is higher: 0.653 for the first, 0.555 for the second.

Compared with LFLASYCIGGG [UBD_Y161_C160S], EGGFAYVPLKD [PRIM2_Y208_D204G] is lower in phosphorylation enrichment: 0.671 for the first, 0.379 for the second.

First: PDMHSYMVRYN [GRIN2D_Y732]
Second: DRTVHYVDEKG [IFT140_Y216_G212R]
The phosphorylation enrichment of the first is higher: 0.674 for the first, 0.368 for the second.

Going from GSIQQYIYKQE [PRG4_Y1271] to SSSAIYDNPNL [DCP1B_Y191], the phosphorylation enrichment rises from 0.398 to 9.27.

Going from EERKTYVNTTL [TEK_Y1102] to KRLDGYVLEGW [IGSF9_Y656_R661W], the phosphorylation enrichment falls from 0.551 to 0.506.

First: TEYIQYVRRKN [MAX_Y73_M74V]
Second: SHGQDYLAGNK [GSTA2_Y147_V149A]
The phosphorylation enrichment of the first is higher: 0.454 for the first, 0.421 for the second.

Compared with PSSRDYKDNIK [PIGN_Y227_H229D], TIWDSYTTNKV [GNB1_Y85_I80T] is higher in phosphorylation enrichment: 0.407 for the first, 0.485 for the second.

First: SMAKYYASGIA [ACADSB_Y373_E376G]
Second: GRSTFYWPRPR [GAGE12J_Y10_YF]
The phosphorylation enrichment of the first is lower: 0.444 for the first, 0.463 for the second.

Going from AFDNLYYWDQD [ERBB2_Y1221] to VEKEKYVSFIS [JMJD1C_Y596_M591V_YF], the phosphorylation enrichment falls from 3.07 to 0.36.

First: PLRANYLIARV [HLCS_Y635_D634N]
Second: CKLVDYDSARH [BIN1_Y150_R145C]
The phosphorylation enrichment of the first is higher: 0.7 for the first, 0.401 for the second.

Going from FAKSVYWDNTL [NUP107_Y296_E298D_YF] to IDAICYYRMEN [NPHS2_Y194], the phosphorylation enrichment rises from 0.463 to 0.642.

For CEHRGCLYLAI [TEK_Y897_Y897C], the phosphorylation enrichment was 0.44.

Biological target: MERTK (UniProt Q12866)
Test: as above

MERTK, sequence (Q12866 whole entry, looked up): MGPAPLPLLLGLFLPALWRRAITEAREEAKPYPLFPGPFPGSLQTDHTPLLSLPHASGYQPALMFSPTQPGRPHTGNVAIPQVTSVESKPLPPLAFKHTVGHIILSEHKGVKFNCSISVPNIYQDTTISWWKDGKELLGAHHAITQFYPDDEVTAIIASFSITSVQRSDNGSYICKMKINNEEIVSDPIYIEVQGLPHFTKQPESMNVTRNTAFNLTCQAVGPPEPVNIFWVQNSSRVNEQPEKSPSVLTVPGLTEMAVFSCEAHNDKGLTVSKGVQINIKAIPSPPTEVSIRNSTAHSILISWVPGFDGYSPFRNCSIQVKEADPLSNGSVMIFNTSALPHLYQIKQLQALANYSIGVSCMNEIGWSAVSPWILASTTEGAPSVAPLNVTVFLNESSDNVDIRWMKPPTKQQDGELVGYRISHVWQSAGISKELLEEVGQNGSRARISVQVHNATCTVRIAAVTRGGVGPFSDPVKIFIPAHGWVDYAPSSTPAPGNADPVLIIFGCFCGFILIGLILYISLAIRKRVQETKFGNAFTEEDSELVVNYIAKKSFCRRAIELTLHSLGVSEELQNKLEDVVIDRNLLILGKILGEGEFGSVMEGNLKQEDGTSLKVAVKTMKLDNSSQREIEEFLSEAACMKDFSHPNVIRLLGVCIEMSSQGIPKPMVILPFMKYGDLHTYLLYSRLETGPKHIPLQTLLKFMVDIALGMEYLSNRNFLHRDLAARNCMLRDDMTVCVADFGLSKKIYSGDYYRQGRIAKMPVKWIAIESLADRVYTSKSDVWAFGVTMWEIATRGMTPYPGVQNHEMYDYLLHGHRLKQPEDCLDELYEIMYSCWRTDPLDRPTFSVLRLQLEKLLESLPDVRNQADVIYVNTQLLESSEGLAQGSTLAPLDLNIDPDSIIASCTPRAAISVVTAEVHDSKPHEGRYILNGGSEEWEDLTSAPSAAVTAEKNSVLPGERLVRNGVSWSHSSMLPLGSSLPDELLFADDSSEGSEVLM

Compared with YQLPYYNMVPS [BMPR1A_Y458], VMTSKYRGGGG [HBA1_Y141_L137M] is lower in phosphorylation enrichment: 8.84 for the first, 0.36 for the second.

First: FFSSEYHFVGG [CTSC_Y345_YF]
Second: DLNATYCTIQG [U2SURP_Y634_R635C]
The phosphorylation enrichment of the first is higher: 3.31 for the first, 2.36 for the second.

Compared with MVIPNYSSWTE [UROC1_Y185_R188W], KLLLKYSFHDV [RNF213_Y4141] is lower in phosphorylation enrichment: 3.74 for the first, 0.4 for the second.

Going from HAVEDYQAIVD [CCT7_Y263_T259A] to PRQRRYVFFFS [PTEN_Y174_S170R_YF], the phosphorylation enrichment falls from 3.12 to 0.574.

Compared with LFLASYCIGGG [UBD_Y161_C160S], EGGFAYVPLKD [PRIM2_Y208_D204G] is lower in phosphorylation enrichment: 0.537 for the first, 0.371 for the second.

First: PDMHSYMVRYN [GRIN2D_Y732]
Second: DRTVHYVDEKG [IFT140_Y216_G212R]
The phosphorylation enrichment of the first is higher: 0.616 for the first, 0.393 for the second.

Compared with GSIQQYIYKQE [PRG4_Y1271], SSSAIYDNPNL [DCP1B_Y191] is higher in phosphorylation enrichment: 0.433 for the first, 8.1 for the second.

Compared with EERKTYVNTTL [TEK_Y1102], KRLDGYVLEGW [IGSF9_Y656_R661W] is lower in phosphorylation enrichment: 0.498 for the first, 0.381 for the second.

Compared with TEYIQYVRRKN [MAX_Y73_M74V], SHGQDYLAGNK [GSTA2_Y147_V149A] is lower in phosphorylation enrichment: 0.647 for the first, 0.471 for the second.

Compared with PSSRDYKDNIK [PIGN_Y227_H229D], TIWDSYTTNKV [GNB1_Y85_I80T] is lower in phosphorylation enrichment: 0.727 for the first, 0.463 for the second.

Going from SMAKYYASGIA [ACADSB_Y373_E376G] to GRSTFYWPRPR [GAGE12J_Y10_YF], the phosphorylation enrichment rises from 0.381 to 0.538.

Going from AFDNLYYWDQD [ERBB2_Y1221] to VEKEKYVSFIS [JMJD1C_Y596_M591V_YF], the phosphorylation enrichment falls from 7.32 to 0.408.

First: PLRANYLIARV [HLCS_Y635_D634N]
Second: CKLVDYDSARH [BIN1_Y150_R145C]
The phosphorylation enrichment of the first is higher: 0.716 for the first, 0.381 for the second.

Going from FAKSVYWDNTL [NUP107_Y296_E298D_YF] to IDAICYYRMEN [NPHS2_Y194], the phosphorylation enrichment rises from 0.725 to 0.844.

With CEHRGCLYLAI [TEK_Y897_Y897C] the phosphorylation enrichment was 0.661.
